Results: publication PMC5454392, “Selective BET bromodomain inhibition as an antifungal therapeutic strategy” (Nature Communications, 2017)
Numbered stars: 1 amine (or outer) side, 2 acyl side, 3 side chain; on linkers, the order of the positions; unused ones are H or OH. Square brackets hold non-standard residues; d marks the D form. Ends that are not written are not given here. Arg(Me2a) = CN(C)C(=N)NCCC[C@H](N)C(=O)O; Kac = CC(=O)NCCCC[C@H](N[*:1])C(=O)[*:2]; Lys(Me3) = C[N+](C)(C)CCCC[C@H](N)C(=O)O; Arg(Me2s) = CN=C(NC)NCCC[C@H](N)C(=O)O; pT = C[C@@H](OP(=O)(O)O)[C@H](N)C(=O)O; Lys(Me2) = CN(C)CCCC[C@H](N)C(=O)O; pS = N[C@@H](COP(=O)(O)O)C(=O)O; Cit = NC(=O)NCCC[C@H](N)C(=O)O; Lys(Me) = CNCCCC[C@H](N)C(=O)O; Me2a = not defined here; me2a = not defined here

T1: CaBdf1 BD2 (GST-tagged, wild-type) (Candida albicans (strain SC5314 / ATCC …, UniProt Q5A4W8))
T1 chain: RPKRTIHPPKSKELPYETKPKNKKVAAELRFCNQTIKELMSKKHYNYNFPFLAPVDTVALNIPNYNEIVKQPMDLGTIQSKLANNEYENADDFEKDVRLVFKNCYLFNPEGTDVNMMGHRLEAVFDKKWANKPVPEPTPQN

T2: CaBdf1 BD1 (GST-tagged, wild-type) (Candida albicans (strain SC5314 / ATCC …, UniProt Q5A4W8))
T2 chain: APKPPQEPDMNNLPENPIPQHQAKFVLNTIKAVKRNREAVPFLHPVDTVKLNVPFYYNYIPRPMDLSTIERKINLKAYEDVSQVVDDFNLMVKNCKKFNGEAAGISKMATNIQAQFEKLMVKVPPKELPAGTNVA

B1: H3 26-45 (peptide)
chain: RKSAPATGGVKKPHRYRPG
modifications: not fully specified; histone peptide post-translational modifications (acetyl, methyl, phospho, citrulline) listed in columns 4-7 and embedded in the sequence text; N-terminus free or acetylated in column 8
B2: c-myc tag (peptide)
chain: EQKLISEEDLA
modifications: histone peptide post-translational modifications (acetyl, methyl, phospho, citrulline) listed in columns 4-7 and embedded in the sequence text; N-terminus free or acetylated in column 8

Target: T1, CaBdf1 BD2 (GST-tagged, wild-type)
Assay: histone peptide array (Active Motif MODified), 1 uM GST-tagged bromodomain, anti-GST detection, normalized mean intensity

Binder | binding score
SGRGKGGKGLGKGGAKRHR (S G R G Kac G G K G L G K G G A K R H R) | 0.0241
SGRGKQGGK(Ac)ARAK(Ac)AKSRSS | 0.0481
SGRGKGGKGLGKGGAKRHR (S G R G K G G K G L G Kac G G A Kac R H R) | 0.0248
ARTK(Me)QTAR(me2s)K(me3)STGGKAPRKQ | 0.00407
ARTKQTARKSTGGKAPRKQ (A Rme2s T Kac Q T A Rme2s Kme3 S T G G K A P R K Q) | 0.00555
PRKQLATKAAR(Me2s)K[pS]APATGG | 0.00444
PDPAKSAPAPKKG[pS]K(Ac)KAVT | 0.145
K[Lys(Me)][Lys(Me2)][Lys(Me3)]K(Ac)R[Arg(Me2s)]R[Arg(Me2a)]R[Cit]K[Lys(Me)]K(Ac)[Lys(Me3)]RK [background 01] | 0.00629
ARTKQTARKSTGGKAPRKQ (A Rme2a T Kme1 Q T A Rme2a Kme1 S T G G K A P R K Q) | 0.00259
ARTKQTARKSTGGKAPRKQ (A R T K Q T A Rme2a Kme3 pS pT G G K A P R K Q) | 0.0037
SGRGK(Ac)QGGK(Ac)ARAK(Ac)AKSRSS | 0.00888
SGRGKGGKGLGKGGAKRHR (S G Rme2s G Kac G G K G L G K G G A K R H R) | 0.00555
ARTKQTA[Arg(Me2s)][Lys(Me)][pS]TGGKAPRKQ | 0.00259
[pS]GRGK(Ac)QGGK(Ac)ARAKAKSRSS | 0.00925
B1 | 0.00296
PDPAK(Ac)SAPAPKK(Ac)GSK(Ac)KAVT | 0.137
AR(me2s)TK(Me)QTAR(me2s)K(me3)STGGKAPRKQ | 0.00629
PRKQLATKAARKSAPATGG (P R K Q L A T K A A R Kme2 S A P A T G G) | 0.00666
ARTKQTARKSTGGKAPRKQ (A R T K Q T A Rme2a Kme3 pS T G G K A P R K Q) | 0.00333
B2 | 1
ARTKQTARKSTGGKAPRKQ (A R T K Q T A Rme2a Kme3 S pT G G K A P R K Q) | 0.00555
[pS]GRGKQGGK(Ac)ARAKAKSRSS | 0.0137

Binder | binding score
A[Arg(Me2s)]TKQTARKSTGGKAPRKQ | 0.0037
SGRGKGGKGLGKGGAKRHR (S G Rme2a G K G G K G L G K G G A K R H R) | 0.0215
A[Arg(Me2a)]T[Kac]QTAR[Kac]STGGKAPRKQ | 0.00851
SGRGKGGKGLGKGGAKRHR (S G R G K G G Kac G L G K G G A K R H R) | 0.027
AR(me2a)TK(me2)QTAR(me2a)K(Me)STGGKAPRKQ (reading uncertain) | 0.00629
ARTK(Ac)QTARKSTGGKAPRKQ | 0.00222
PRKQLATKAAR(Me2a)K(Me3)[pS]APATGG (reading uncertain) | 0.00296
AR[pT]KQTARKSTGGKAPRKQ | 0.00259
A[Arg(Me2s)]T[Kac]QTA[Arg(Me2s)][Lys(Me2)]STGGKAPRKQ | 0.00666
SGRGKGGKGLGKGGAKRHR (S G R G K G G K G L G Kac G G A K R H R) | 0.00851
PDPAK(Ac)SAPAPKK(Ac)GSKKAVT | 0.00555
ARTKQTARKSTGGKAPRKQ (A R T K Q T A Rme2s Kme3 pS T G G K A P R K Q) | 0.00333
ARTKQTARKSTGGKAPRKQ (A R T K Q T A R Kme2 S pT G G K A P R K Q) | 0.00185
ARTKQTARKSTGGKAPRKQ (A R T Kac Q T A Rme2a Kme1 S T G G K A P R K Q) | 0.00555
ARTKQTARKSTGGKAPRKQ (A R T K Q T A Rme2s K S T G G K A P R K Q) | 0.00148
ARTKQTARKSTGGKAPRKQ (A R T K Q T A R Kac S T G G Kac A P R K Q) | 0.0211
SGRGKGGKGLGKGGAKRHR (pS G Rme2a G Kac G G Kac G L G K G G A K R H R) | 0.0396
SGRGKGGKGLGKGGAKRHR (S G R G Kac G G Kac G L G Kac G G A Kac R H R) | 0.902
A[Arg(Me2s)]T[Lys(Me2)]QTA[Arg(Me2a)][Lys(Me)]STGGKAPRKQ | 0.0037
ARTKQTARKSTGGKAPRKQ (A Rme2s T Kme2 Q T A Rme2s Kme2 S T G G K A P R K Q) | 0.00407
SGRGKGGKGLGKGGAKRHR (pS G Rme2s G Kac G G K G L G K G G A K R H R) | 0.00555
RKSAPATGGVKKPHRYRPG (R K S A P A T G G V Kme1 K P H R Y R P G) | 0.00481

Target: T2, CaBdf1 BD1 (GST-tagged, wild-type)
Assay: as above

Binder | binding score
SGRGKGGKGLGKGGAKRHR (S G R G Kac G G K G L G K G G A K R H R) | 0.0185
SGRGKQGGK(Ac)ARAK(Ac)AKSRSS | 0.178
SGRGKGGKGLGKGGAKRHR (S G R G K G G K G L G Kac G G A Kac R H R) | 0.0743
ARTK(Me)QTAR(me2s)K(me3)STGGKAPRKQ | 0.00435
ARTKQTARKSTGGKAPRKQ (A Rme2s T Kac Q T A Rme2s Kme3 S T G G K A P R K Q) | 0.00834
PRKQLATKAAR(Me2s)K[pS]APATGG | 0.00181
PDPAKSAPAPKKG[pS]K(Ac)KAVT | 0.0914
K[Lys(Me)][Lys(Me2)][Lys(Me3)]K(Ac)R[Arg(Me2s)]R[Arg(Me2a)]R[Cit]K[Lys(Me)]K(Ac)[Lys(Me3)]RK [background 01] | 0.00906
ARTKQTARKSTGGKAPRKQ (A Rme2a T Kme1 Q T A Rme2a Kme1 S T G G K A P R K Q) | 0.00363
ARTKQTARKSTGGKAPRKQ (A R T K Q T A Rme2a Kme3 pS pT G G K A P R K Q) | 0.00326
SGRGK(Ac)QGGK(Ac)ARAK(Ac)AKSRSS | 0.0591
SGRGKGGKGLGKGGAKRHR (S G Rme2s G Kac G G K G L G K G G A K R H R) | 0.0225
ARTKQTA[Arg(Me2s)][Lys(Me)][pS]TGGKAPRKQ | 0.00508
[pS]GRGK(Ac)QGGK(Ac)ARAKAKSRSS | 0.0381
B1 | 0.00508
PDPAK(Ac)SAPAPKK(Ac)GSK(Ac)KAVT | 0.0616
AR(me2s)TK(Me)QTAR(me2s)K(me3)STGGKAPRKQ | 0.0029
PRKQLATKAARKSAPATGG (P R K Q L A T K A A R Kme2 S A P A T G G) | 0.00254
ARTKQTARKSTGGKAPRKQ (A R T K Q T A Rme2a Kme3 pS T G G K A P R K Q) | 0.00254
B2 | 1.01
ARTKQTARKSTGGKAPRKQ (A R T K Q T A Rme2a Kme3 S pT G G K A P R K Q) | 0.00653
[pS]GRGKQGGK(Ac)ARAKAKSRSS | 0.0174

Binder | binding score
A[Arg(Me2s)]TKQTARKSTGGKAPRKQ | 0.000725
SGRGKGGKGLGKGGAKRHR (S G Rme2a G K G G K G L G K G G A K R H R) | 0.00906
A[Arg(Me2a)]T[Kac]QTAR[Kac]STGGKAPRKQ | 0.046
SGRGKGGKGLGKGGAKRHR (S G R G K G G Kac G L G K G G A K R H R) | 0.0344
AR(me2a)TK(me2)QTAR(me2a)K(Me)STGGKAPRKQ (reading uncertain) | 0.00363
ARTK(Ac)QTARKSTGGKAPRKQ | 0.00363
PRKQLATKAAR(Me2a)K(Me3)[pS]APATGG (reading uncertain) | 0.00218
AR[pT]KQTARKSTGGKAPRKQ | 0
A[Arg(Me2s)]T[Kac]QTA[Arg(Me2s)][Lys(Me2)]STGGKAPRKQ | 0.00725
SGRGKGGKGLGKGGAKRHR (S G R G K G G K G L G Kac G G A K R H R) | 0.033
PDPAK(Ac)SAPAPKK(Ac)GSKKAVT | 0.017
ARTKQTARKSTGGKAPRKQ (A R T K Q T A Rme2s Kme3 pS T G G K A P R K Q) | 0.00508
ARTKQTARKSTGGKAPRKQ (A R T K Q T A R Kme2 S pT G G K A P R K Q) | 0.00544
ARTKQTARKSTGGKAPRKQ (A R T Kac Q T A Rme2a Kme1 S T G G K A P R K Q) | 0.00834
ARTKQTARKSTGGKAPRKQ (A R T K Q T A Rme2s K S T G G K A P R K Q) | 0.00218
ARTKQTARKSTGGKAPRKQ (A R T K Q T A R Kac S T G G Kac A P R K Q) | 0.095
SGRGKGGKGLGKGGAKRHR (pS G Rme2a G Kac G G Kac G L G K G G A K R H R) | 0.0312
SGRGKGGKGLGKGGAKRHR (S G R G Kac G G Kac G L G Kac G G A Kac R H R) | 0.471
A[Arg(Me2s)]T[Lys(Me2)]QTA[Arg(Me2a)][Lys(Me)]STGGKAPRKQ | 0.00544
ARTKQTARKSTGGKAPRKQ (A Rme2s T Kme2 Q T A Rme2s Kme2 S T G G K A P R K Q) | 0.00435
SGRGKGGKGLGKGGAKRHR (pS G Rme2s G Kac G G K G L G K G G A K R H R) | 0.0131
RKSAPATGGVKKPHRYRPG (R K S A P A T G G V Kme1 K P H R Y R P G) | 0.00616
